Assay results published in PMC8531451, “1,1'-Carbonyldiimidazole-copper nanoflower enhanced collapsible laser scribed graphene engraved microgap capacitive aptasensor for the detection of milk allergen”.

Target: T1, beta-lactoglobulin (bovine, UniProt P02754 17-178)
T1 sequence: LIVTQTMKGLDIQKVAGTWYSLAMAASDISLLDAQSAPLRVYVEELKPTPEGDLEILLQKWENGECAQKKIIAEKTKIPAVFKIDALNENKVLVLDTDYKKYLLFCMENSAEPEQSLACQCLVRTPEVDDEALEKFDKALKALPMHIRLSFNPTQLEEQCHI
Test: non-faradaic capacitive aptasensor; CDI-Cu nanoflower/LSG microgap; linear 1 ag/ml-100 fg/ml, LOD 1 ag/ml; Sensor: 10 mM PBS pH 7.4, target incubated 10 min; aptamer folded in 1 mM MgCl2, 10 mM PBS (90 °C 5 min); ELASA: coating at 4 °C overnight, 2% BSA block, PBS washes
Details: protein: commercial; chain copies: 2; label: biotin; 3' A tail of aptamer paired with T20 oligolinker; aptamer part single-stranded

B1: beta-lactoglobulin aptamer with 3' A tail, annealed to biotinylated T20 oligolinker (mixed)
DNA 1: ATACCAGCTTATTCAATTCGACGATCGGACCGCAGTACCCACCCACCAGCCCCAACATCATGCCCATCCGTGTGTGAGATAGTAAGTGCAATCTAAAAAAAAAAAAAAAAAAAAAAAA
DNA 2: TTTTTTTTTTTTTTTTTTTT
modifications: 5' biotin (5Biosg) on oligolinker S1
  binding result: binds
